These results are taken from paper PMC7881136, “Mechanism of karyopherin-β2 binding and nuclear import of ALS variants FUS(P525L) and FUS(R495X)” (Scientific Reports, 2021).

The labels stand for the following.
T1: GST-Kapβ2 (Karyopherin-β2) (human, UniProt Q92973-2 1-890)
T1 construct: Karyopherin β2 (Kapβ2, Transportin-1, TNPO1), human; GST-importin eluted with glutathione and immobilised again on GSH beads for pull-downs; also called Transportin-1; TNPO1; source: E. coli BL21 (DE3), purified (GSH Sepharose, anion exchange, SEC)
T1 sequence (looked up): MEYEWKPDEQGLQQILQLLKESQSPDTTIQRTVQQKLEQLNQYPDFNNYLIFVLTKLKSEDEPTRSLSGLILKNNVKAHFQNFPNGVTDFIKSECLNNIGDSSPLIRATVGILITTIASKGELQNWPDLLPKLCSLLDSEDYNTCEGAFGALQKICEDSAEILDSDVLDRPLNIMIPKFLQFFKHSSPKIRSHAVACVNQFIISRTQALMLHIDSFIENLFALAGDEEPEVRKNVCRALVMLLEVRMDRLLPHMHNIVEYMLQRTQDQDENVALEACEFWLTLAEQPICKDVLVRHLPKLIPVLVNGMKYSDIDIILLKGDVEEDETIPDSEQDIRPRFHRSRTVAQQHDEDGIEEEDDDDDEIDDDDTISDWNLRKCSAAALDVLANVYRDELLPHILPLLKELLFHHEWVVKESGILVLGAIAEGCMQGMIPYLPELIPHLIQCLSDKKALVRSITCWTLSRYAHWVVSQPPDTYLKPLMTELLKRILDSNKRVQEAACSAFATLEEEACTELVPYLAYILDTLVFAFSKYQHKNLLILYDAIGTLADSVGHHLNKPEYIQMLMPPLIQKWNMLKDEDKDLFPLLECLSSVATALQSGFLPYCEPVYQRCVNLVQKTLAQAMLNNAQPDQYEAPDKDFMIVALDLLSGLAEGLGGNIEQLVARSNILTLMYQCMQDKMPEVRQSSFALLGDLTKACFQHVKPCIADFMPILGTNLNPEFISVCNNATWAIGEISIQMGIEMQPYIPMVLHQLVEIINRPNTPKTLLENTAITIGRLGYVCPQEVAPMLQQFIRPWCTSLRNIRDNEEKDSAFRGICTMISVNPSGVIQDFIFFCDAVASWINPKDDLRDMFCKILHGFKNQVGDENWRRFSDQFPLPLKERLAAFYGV

T2: Kapβ2 (untagged, GST removed) (human, UniProt Q92973-2 1-890)
T2 construct: Karyopherin β2 (Kapβ2, Transportin-1, TNPO1), human; used for ITC and turbidity assays; also called Karyopherin-β2; Transportin-1; source: E. coli BL21 (DE3), purified (GSH column, Tev cleavage, anion exchange, SEC Superdex200)
T2 sequence (looked up): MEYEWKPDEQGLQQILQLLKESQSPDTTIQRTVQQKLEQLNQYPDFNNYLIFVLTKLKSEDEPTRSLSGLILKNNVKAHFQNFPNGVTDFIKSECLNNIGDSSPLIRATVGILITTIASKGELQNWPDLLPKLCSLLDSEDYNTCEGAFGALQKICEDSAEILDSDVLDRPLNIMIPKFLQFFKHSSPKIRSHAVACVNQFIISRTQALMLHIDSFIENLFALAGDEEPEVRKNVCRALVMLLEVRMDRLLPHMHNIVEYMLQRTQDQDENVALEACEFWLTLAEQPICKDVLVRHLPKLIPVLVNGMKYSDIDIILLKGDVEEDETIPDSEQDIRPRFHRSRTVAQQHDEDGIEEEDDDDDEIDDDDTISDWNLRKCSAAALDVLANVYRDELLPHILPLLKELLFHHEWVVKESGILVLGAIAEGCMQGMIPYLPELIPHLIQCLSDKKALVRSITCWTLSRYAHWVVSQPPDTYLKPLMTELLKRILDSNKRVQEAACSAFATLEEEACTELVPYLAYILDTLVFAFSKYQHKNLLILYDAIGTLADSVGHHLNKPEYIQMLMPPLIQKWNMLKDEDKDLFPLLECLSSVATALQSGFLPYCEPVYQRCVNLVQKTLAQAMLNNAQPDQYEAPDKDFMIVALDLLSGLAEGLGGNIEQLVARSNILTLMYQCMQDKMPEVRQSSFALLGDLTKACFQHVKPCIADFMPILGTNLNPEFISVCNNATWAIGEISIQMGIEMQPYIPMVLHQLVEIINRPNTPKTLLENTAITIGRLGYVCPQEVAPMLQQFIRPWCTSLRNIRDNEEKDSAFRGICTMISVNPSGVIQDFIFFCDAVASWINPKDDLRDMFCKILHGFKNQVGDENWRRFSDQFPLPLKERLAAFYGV

B1: MBP-FUS(121–500) (domain or fragment, UniProt P35637 121-500, looked up)
chain: SYGQPQSGSYSQQPSYGGQQQSYGQQQSYNPPQGYGQQNQYNSSSGGGGGGGGGGNYGQDQSSMSSGGGSGGGYGNQDQSGGGGSGGYGQQDRGGRGRGGSGGGGGGGGGGYNRSSGGYEPRGRGGGRGGRGGMGGSDRGGFNKFGGPRDQGSRHDSEQDNSDNNTIFVQGLGENVTIESVADYFKQIGIIKTNKKTGQPMINLYTDRETGKLKGEATVSFDDPPSAKAAIDWFDGKEFSGNPIKVSFATRRADFNRGGGNGRGGRGRGGPMGRGGYGGGGSGGGGRGGFPSGGGGGGGQQRAGDWKCPNPTCENMNFSWRNECNQCKAPKPDGPGGGPGGSHMGGNYGDDRRGGRGGYDRGGYRGRGGDRGGFRGGRGG
notes: source: E. coli BL21 (DE3), purified (amylose resin, SEC); not shown: MBP, N-terminal, kept
B2: MBP-FUS(1–452) (domain or fragment, UniProt P35637 1-452, looked up)
chain: MASNDYTQQATQSYGAYPTQPGQGYSQQSSQPYGQQSYSGYSQSTDTSGYGQSSYSSYGQSQNTGYGTQSTPQGYGSTGGYGSSQSSQSSYGQQSSYPGYGQQPAPSSTSGSYGSSSQSSSYGQPQSGSYSQQPSYGGQQQSYGQQQSYNPPQGYGQQNQYNSSSGGGGGGGGGGNYGQDQSSMSSGGGSGGGYGNQDQSGGGGSGGYGQQDRGGRGRGGSGGGGGGGGGGYNRSSGGYEPRGRGGGRGGRGGMGGSDRGGFNKFGGPRDQGSRHDSEQDNSDNNTIFVQGLGENVTIESVADYFKQIGIIKTNKKTGQPMINLYTDRETGKLKGEATVSFDDPPSAKAAIDWFDGKEFSGNPIKVSFATRRADFNRGGGNGRGGRGRGGPMGRGGYGGGGSGGGGRGGFPSGGGGGGGQQRAGDWKCPNPTCENMNFSWRNECNQCKAPKP
notes: as for B1
B3: MBP-FUS(277–500) (domain or fragment, UniProt P35637 277-500, looked up)
chain: SEQDNSDNNTIFVQGLGENVTIESVADYFKQIGIIKTNKKTGQPMINLYTDRETGKLKGEATVSFDDPPSAKAAIDWFDGKEFSGNPIKVSFATRRADFNRGGGNGRGGRGRGGPMGRGGYGGGGSGGGGRGGFPSGGGGGGGQQRAGDWKCPNPTCENMNFSWRNECNQCKAPKPDGPGGGPGGSHMGGNYGDDRRGGRGGYDRGGYRGRGGDRGGFRGGRGG
notes: as for B1
B4: MBP-FUS(1–430) (domain or fragment, UniProt P35637 1-430, looked up)
chain: MASNDYTQQATQSYGAYPTQPGQGYSQQSSQPYGQQSYSGYSQSTDTSGYGQSSYSSYGQSQNTGYGTQSTPQGYGSTGGYGSSQSSQSSYGQQSSYPGYGQQPAPSSTSGSYGSSSQSSSYGQPQSGSYSQQPSYGGQQQSYGQQQSYNPPQGYGQQNQYNSSSGGGGGGGGGGNYGQDQSSMSSGGGSGGGYGNQDQSGGGGSGGYGQQDRGGRGRGGSGGGGGGGGGGYNRSSGGYEPRGRGGGRGGRGGMGGSDRGGFNKFGGPRDQGSRHDSEQDNSDNNTIFVQGLGENVTIESVADYFKQIGIIKTNKKTGQPMINLYTDRETGKLKGEATVSFDDPPSAKAAIDWFDGKEFSGNPIKVSFATRRADFNRGGGNGRGGRGRGGPMGRGGYGGGGSGGGGRGGFPSGGGGGGGQQRAGDWKCPN
notes: FUS residues 1–430 (missing ZnF-RGG3-PYNLS); source: E. coli BL21 (DE3), purified (amylose resin, SEC); not shown: MBP, N-terminal, kept
B5: MBP-FUS(1–370) (domain or fragment, UniProt P35637 1-370, looked up)
chain: MASNDYTQQATQSYGAYPTQPGQGYSQQSSQPYGQQSYSGYSQSTDTSGYGQSSYSSYGQSQNTGYGTQSTPQGYGSTGGYGSSQSSQSSYGQQSSYPGYGQQPAPSSTSGSYGSSSQSSSYGQPQSGSYSQQPSYGGQQQSYGQQQSYNPPQGYGQQNQYNSSSGGGGGGGGGGNYGQDQSSMSSGGGSGGGYGNQDQSGGGGSGGYGQQDRGGRGRGGSGGGGGGGGGGYNRSSGGYEPRGRGGGRGGRGGMGGSDRGGFNKFGGPRDQGSRHDSEQDNSDNNTIFVQGLGENVTIESVADYFKQIGIIKTNKKTGQPMINLYTDRETGKLKGEATVSFDDPPSAKAAIDWFDGKEFSGNPIKVSFAT
notes: FUS residues 1–370 (missing RGG2-ZnF-RGG3-PYNLS); also called FUS LC-RGG1; source: E. coli BL21 (DE3), purified (amylose resin, SEC); not shown: MBP, N-terminal, kept
B6: MBP-FUS(1–500) (domain or fragment, UniProt P35637 1-500, looked up)
chain: MASNDYTQQATQSYGAYPTQPGQGYSQQSSQPYGQQSYSGYSQSTDTSGYGQSSYSSYGQSQNTGYGTQSTPQGYGSTGGYGSSQSSQSSYGQQSSYPGYGQQPAPSSTSGSYGSSSQSSSYGQPQSGSYSQQPSYGGQQQSYGQQQSYNPPQGYGQQNQYNSSSGGGGGGGGGGNYGQDQSSMSSGGGSGGGYGNQDQSGGGGSGGYGQQDRGGRGRGGSGGGGGGGGGGYNRSSGGYEPRGRGGGRGGRGGMGGSDRGGFNKFGGPRDQGSRHDSEQDNSDNNTIFVQGLGENVTIESVADYFKQIGIIKTNKKTGQPMINLYTDRETGKLKGEATVSFDDPPSAKAAIDWFDGKEFSGNPIKVSFATRRADFNRGGGNGRGGRGRGGPMGRGGYGGGGSGGGGRGGFPSGGGGGGGQQRAGDWKCPNPTCENMNFSWRNECNQCKAPKPDGPGGGPGGSHMGGNYGDDRRGGRGGYDRGGYRGRGGDRGGFRGGRGG
notes: FUS residues 1–500; in the turbidity assays MBP is cut off by Tev during the assay; source: E. coli BL21 (DE3), purified (amylose resin, SEC); not shown: MBP, N-terminal, kept

The first assay concerns the target T1, GST-Kapβ2 (Karyopherin-β2). In words: pull-down; 4–8 μM GST-importin (or GST) immobilised on 50 μL GSH beads; 4–8 μM MBP-FUS protein or GSP1 added in 100 μL; 20 mM HEPES pH 7.4, 110 mM potassium acetate, 2 mM magnesium acetate, 2 mM DTT, 15% glycerol; 30 min at 25 °C, three washes; Coomassie-stained SDS-PAGE. The settings on record: both partners purified.
For B1, the binding result was “binds”.
The same measure, in the same setting: then B2, with “binds”; and B3, with “binds”; and B4, with “binds”.

For a further assay, the target named is T2, Kapβ2 (untagged, GST removed). Kind of assay: ITC; reversed set-up: 10 μM MBP-FUS protein in the cell, 100 μM or 200 μM Kapβ2 in the syringe; 20 mM Tris–HCl, 150 mM NaCl, 10% glycerol, 2 mM BME; 20 °C; single class of binding sites; 'apparent' KD for FUS(1–370). Conditions: both partners purified.
B5: the Kd turned out to be 35 µM.
With B6, the Kd is 0.16 µM.
